Drawing on the supplement of paper PMC12042874, this text covers amyloid nucleation score for 140 substances.

± gives the uncertainty stated by the source.

The nature of this data set: amyloid nucleation score (Sup35N fusion, yeast selection) (log enrichment); library NNK1; higher = more nucleation; inactive = no reads after selection. The gist of the method:
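Growth for 7 days at 30°C on medium lacking adenine and uracil followed a 24-hour induction with 100 μM copper sulfate of psi-negative yeast expressing peptides of 20 random codons fused to Sup35N. Input and output plasmid inserts were sequenced with Illumina, and sequences with under 100 input reads were excluded. Nucleation score is the DiMSum log enrichment of output over input reads, centred on the mode score of non-aggregating sequences.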
On to VILTYGTVRY, for which the amyloid nucleation score came to 0.38 ± 0.59.

For VILWRSRIASRCPTLM, the amyloid nucleation score was -0.415 ± 1.4. For VIRCRKFRTVWILFLAISLV the value was “inactive”. The figure for VIRRLRSTYMSDMLLEGGLA is 0.864 ± 0.56; for VISGVCFSDIFLDVPTLWLW it is 0.393 ± 0.3; for VITIGMFCRIIEGHYVMYLT it is 0.089 ± 0.47. The figure for VIVHIWRET is 3.92 ± 0.11; for VIVQKSLS it is -0.086 ± 0.61.

For VIVWGSRSFLGC, the amyloid nucleation score is 3.49 ± 0.1. The figure for VIVWVWSCVM is 6.247 ± 0.055; for VIYFLRYHLFNSLVSPHNRR it is “inactive”.

Turning to VKCGLG, the amyloid nucleation score was found to be 0.696 ± 0.84.

In turn, VKFKGTTLCYIFDMDFMHGI registered an amyloid nucleation score of 0.948 ± 0.14. The figure for VKLAVREVTSEMPREKLTVA is 0.236 ± 0.26. For VKQSST the value was 0.212 ± 0.66; for VKRHNLLCWRFMDFTINLGG, 4.01 ± 0.13; for VKSGALKYRKIGAYGTGSRL, 0.728 ± 1.2. The figure for VKSRYLFRCSLLFEHDTGIC is 0.01 ± 0.23; for VKTPSVRIKWDVISLSLPCA it is 0.156 ± 0.53.

VKYGDSRLADAWNFVSNK registered an amyloid nucleation score of -0.476 ± 0.3.

VLEYPSTSAARFSHRVKRK came in with an amyloid nucleation score of 8.434 ± 0.047. In turn, VLGRRKMIQVNFNFKYLSWD yielded an amyloid nucleation score of 1.62 ± 0.45. The figure for VLIGSLLCN is 0.878 ± 0.41; for VLIMYYGCLDDFLLRDYSLL it is 0.856 ± 0.67. For VLKGNKRRVLNAWVAYVLRS the value was 0.273 ± 0.35.

As to VLLADVCLSVERGKVTDPGS, the amyloid nucleation score is 1.25 ± 0.58.

The substance VLNLIRRGIWGYHHEMGTG returned an amyloid nucleation score of -0.947 ± 0.81. For VLNYHLH the value was -0.569 ± 0.79; for VLRNDTMGAGANF, -1.3 ± 0.39; for VLRRLRSWRKVELENNRGKM, “inactive”. Consider VLSWWTTNPSVMENTCCPWS, for which the amyloid nucleation score stood at 2.09 ± 0.32.

The substance VLTWMDVTDLLGCVLKLSPV yielded an amyloid nucleation score of 1.36 ± 0.45. As to VLVKQGVMA, the amyloid nucleation score was 0.868 ± 0.78. The entry for VLVSSCSTGDLVSSDPHSSV is “inactive”. As to VLYMVEACLVWGIRQSESAV, the amyloid nucleation score worked out at 0.393 ± 0.73. The substance VLYSELLGFRKSIIIMVWTR showed an amyloid nucleation score of -0.015 ± 0.28.

In the case of VMDYYTMFFEMPRGRALIAN, the amyloid nucleation score result is “inactive”. Substance VMKLAVRR displayed an amyloid nucleation score of -0.114 ± 0.91.

Consider VMLAGSDWLNGFRAESFCGI, for which the amyloid nucleation score is -1.35 ± 2.1. The figure for VMLPHHWSLNKNY is 0.264 ± 0.29; for VMSATVSSFWTEVCRMRTVT it is 1.14 ± 0.66.

In turn, VMSGRCFTRCAFGLQRVPSV yielded an amyloid nucleation score of 0.033 ± 0.63. The figure for VMSVSWVCIGCLSEDISWVF is 5.884 ± 0.044; for VMYLSGCHLRLKCYLGSFNR it is 5.51 ± 0.076.

VMYVPPMACSLS gave an amyloid nucleation score of -0.315 ± 0.77. For the substance VNAMSLLILDAVLDKEQW, the amyloid nucleation score is 0.921 ± 1. VNDQAGRLGD showed an amyloid nucleation score of 0.904 ± 0.61.

In the case of VNEFLRFFLWSHLQWMI, the amyloid nucleation score was -0.045 ± 0.28. For VNGQYMRSHWFGDTTLLPIC the value was -0.316 ± 0.24; for VNIRVRD, 0.023 ± 0.33.

VNKHL showed an amyloid nucleation score of -0.329 ± 0.36. In the case of VNKRISGTLHDTYEGDLCL, the amyloid nucleation score is -0.418 ± 0.75.

In turn, VNNYTF came in with an amyloid nucleation score of 0.234 ± 0.28. In turn, VNRFANVLRR displayed an amyloid nucleation score of 0.234 ± 0.29. The figure for VNRGVVVRITWIAKHYCMSE is 0.26 ± 0.38; for VNRYEVPLLGRRHDCEFSRT it is -0.806 ± 1.1; for VNSSPFFMYKGVHFTWTYYS it is 4.51 ± 0.1. The entry for VNVFYLMFQNIIIQVFLCVF is “inactive”; for VNVKSVRYRKMSLGVYLVDW it is 0.261 ± 0.68; for VNWFTR it is 0.582 ± 0.56. For VPALQQIPYCMI the value was 0.524 ± 0.57; for VPENLKRMRVRAVSLGMSGE, 1.44 ± 0.5; for VPHLNGCISFWNVSVGYKVP, 5.44 ± 0.077. VPPASQISGPWARLSEMVSH had an amyloid nucleation score of -1.12 ± 0.7. On to VPRVYMFKFGIILFFYMHKA, for which the amyloid nucleation score is -0.273 ± 0.3. VPSSTVVDHSIYRGDMPSFA yielded an amyloid nucleation score of 0.163 ± 0.41. The substance VPYRFPRMVKYGSMDFTSLE registered an amyloid nucleation score of 4.03 ± 0.094. Regarding VQADFFCSAPGHCIWVNGMR, the amyloid nucleation score came to 1.73 ± 0.31.

VQFLIKPDLMTG: the amyloid nucleation score entry was “inactive”. The figure for VQIDK is 0.514 ± 0.33.

In the case of VRCCGPFRACIVLLAITKDG, the amyloid nucleation score was -0.393 ± 1.4. VRCIVTERLTLAMDW: the amyloid nucleation score worked out at 0.199 ± 0.47. Take VREGPRSRSGG: the amyloid nucleation score worked out at 0.149 ± 0.41. The figure for VRFTTIVYPSWFFSAW is 0.565 ± 0.45. The figure for VRGHKWVAWNWMRVARAEQE is -0.257 ± 0.99. The figure for VRHDITARERLSGLWQ is -0.047 ± 1.1; for VRHLRR it is -0.496 ± 0.55.

On to VRKNSERGVK, for which the amyloid nucleation score was -0.591 ± 0.4. VRNETSCTAIVFRSE displayed an amyloid nucleation score of 0.14 ± 0.22. For VRRVPKLVHAADLELWAGSE the value was -0.754 ± 1.1. The figure for VRSCTWCGSEGPGTIPWLGD is 0.443 ± 0.39.

Substance VRSFVHTWLDTTWA came in with an amyloid nucleation score of -0.025 ± 0.36. For VRSNGYHVMFNTINRVWDTV the value was 0.672 ± 0.44; for VRSPDSLVVWDLVRH, -0.367 ± 0.49; for VRTYWTYANWIFMYKKRAQA, -1.85 ± 2.4.

On to VRVISLEVLGYFCPRRLAGA, for which the amyloid nucleation score result was “inactive”. The entry for VRVLGVIMYARLLPVGLWGY is “inactive”; for VRVSVLLVYSGGRFSFPWVL it is -0.063 ± 1.4; for VSCGDELVGDRI it is 0.171 ± 0.36. The figure for VSCLNLIVSWYYANFGN is -0.17 ± 0.32; for VSCWRTVRTAF it is 0.893 ± 0.59; for VSEIFFWFKSWRRRLRLRMG it is “inactive”. Regarding VSFTSIHMVIEDLRIKLNPA, the amyloid nucleation score is -0.426 ± 0.71. For VSGAIRRDYIFDVIGRPTV the value was “inactive”; for VSGDPNMRLCAISIATGFVF, -0.468 ± 0.63. For the substance VSGLRRSRSWWAFDVQSLLR, the amyloid nucleation score was determined as 0.544 ± 0.55. The figure for VSGVYLRFRASCRSY is -0.105 ± 0.58. For VSHDGGLLRVWFMLALREGN the value was 0.003 ± 0.49; for VSIRTGGTCHYT, 0.123 ± 0.28.

With VSKLLCLRMHMLKLW, the amyloid nucleation score is -0.48 ± 0.48.

Substance VSKSYPIPCISKVS showed an amyloid nucleation score of 0.336 ± 0.52. Substance VSLHSRINTVSPRKGLGSYS came in with an amyloid nucleation score of 0.275 ± 0.71.

On to VSLINRRYCPATVFGF, for which the amyloid nucleation score turned out to be 0.117 ± 0.4. For VSNFLSYNRWAHHGLFNSSF the value was 0.553 ± 0.53; for VSPGVFMGVLLMALKFFQAK, -0.303 ± 0.71; for VSRPQMSSTTEHSTTDYFGC, “inactive”. The figure for VSRWSGEEPISCSYGTLR is -0.164 ± 0.6; for VSSHSMGFIVSVVMTCEYRS it is 1.23 ± 0.7.

VSSNYMRNML gave an amyloid nucleation score of 0.169 ± 0.34. For VSTNKRVVGMRRFGTYTRYV the value was -0.309 ± 0.6; for VSTQIRRDGYDYAAVGHC, 0.009 ± 0.8; for VSVFDVWRMQCGNSLVKEGG, -0.088 ± 0.42.

In turn, VSWWNCLL gave an amyloid nucleation score of -1.28 ± 2.4. The figure for VSYQGTSAFDGSRKVVGPTL is 0.353 ± 0.54. The figure for VTHGHVGTVGSWVVRTTAFM is -0.937 ± 2.1; for VTLPSAMQGSHFTWGPNVAF it is -0.422 ± 1.2. The figure for VTLQQRLCSFYMLIVEFASS is 0.045 ± 0.43.

Substance VTMNRIV came in with an amyloid nucleation score of 0.501 ± 0.21. For VTRTYLNRMRSMLSGSMFFM the value was 0.423 ± 0.35; for VVATKLSV, -0.95 ± 1.4. For VVCARVLRWEVGYVFGKIER the value was “inactive”; for VVCVLRVVDVMFASRS, 0.694 ± 1.2. Consider VVFRGAVREVQGSWESCILA, for which the amyloid nucleation score amounted to 0.676 ± 0.52. For VVHRALLYGNGIVN the value was 1.4 ± 0.7.

With VVIGILSEYATKTNWFCSIY, the amyloid nucleation score turned out to be 1.08 ± 0.2. VVLDAFIPWYSLLATSSVGA registered an amyloid nucleation score of -0.777 ± 2.4. With VVLGLWV, the amyloid nucleation score entry was “inactive”. The figure for VVLKNHRHSVLSWWLTS is -0.622 ± 0.56; for VVLLQLQCHEPFYSPKPQQA it is -0.048 ± 0.51. The figure for VVLPGYMLNGFPNESNLIWP is -1.22 ± 0.49; for VVLPRLRGNLVCDEIES it is 2.07 ± 0.53; for VVMNLLVLIGYLSSLYFLQA it is -1.04 ± 1.9.

Substance VVMQACNLNMCFMNGCRRGC registered an amyloid nucleation score of 7.304 ± 0.045. The figure for VVMVLSKGPDIRSNMRCSSV is -1.9 ± 1.4. VVNWIASMGCIFYRVPNVSG: the amyloid nucleation score is 4.66 ± 0.13.

As for VVQAVIR, the amyloid nucleation score is -1.01 ± 1.7. For VVSDRRFYLLKFKSGVLSLV the value was -0.043 ± 0.31; for VVTRDQLYQ, -0.817 ± 1.7.

For the substance VVVEKLAQLNHVKAEPMVSG, the amyloid nucleation score was 0.335 ± 0.57. VVYIHFAII had an amyloid nucleation score of 0.439 ± 0.69.
